Target: APOBEC3G (human), Q9HC16
Experiment: SEC
Settings: remark: other sources report otherwise

B1: APOBEC3G, Q9HC16 1-384 (enzyme)
chain: MKPHFRNTVERMYRDTFSYNFYNRPILSRRNTVWLCYEVKTKGPSRPPLDAKIFRGQVYSELKYHPEMRFFHWFSKWRKLHRDQEYEVTWYISWSPCTKCTRDMATFLAEDPKVTLTIFVARLYYFWDPDYQEALRSLCQKRDGPRATMKIMNYDEFQHCWSKFVYSQRELFEPWNNLPKYYILLHIMLGEILRHSMDPPTFTFNFNNEPWVRGRHETYLCYEVERMHNDTWVLLNQRRGFLCNQAPHKHGFLEGRHAELCFLDVIPFWKLDLDQDYRVTCFTSWSPCFSCAQEMAKFISKNKHVSLCIFTARIYDDQGRCQEGLRTLAEAGAKISIMTYSEFKHCWDTFVDHQGCPFQPWDGLDEHSQDLSGRLRAILQNQEN
In the case of B1, the stoichiometry N is reported as 2.

Source: paper PMC5714209
